Experimental findings from article PMC4336573 (2015) are described below.

In the experiment the target is T1, Histone H3 K27me3 peptide H3K27me3 peptide (Homo sapiens, UniProt P68431, K27 trimethylation (H3)).
T1 chain: QLATKAARKSAPATGGV
Kind of experiment: fluorescence anisotropy. For orientation: Fluorescence polarisation rises when a labelled molecule tumbles more slowly, as on binding a larger partner.

B1: CBX7 chromodomain (protein)
chain: FAVESIRKKRVRKGKVEYLVKWKGWPPKYSTWEPEEHILDPRLVMAYEEKEERDRASGY
As usually defined, the Kd is the concentration at which binding is half-saturated. Higher therefore signals lower affinity. Consider B1, for which binding was put at a Kd of 27.7 µM.
